The target of data set [1] is 1TEL-GG-UBA as run in size exclusion chromatography with ubiquitin (human) (UniProt P41212). Kind of data set: SEC.
The data set “crystal structure” deals with the molecule itself. Kind of data set: crystal structure.

For the molecule “M1-linked-di-ubiquitin (from UniProt P0CG47 1-76; P0CG47 1-76) (natural protein)”, the percent binding in data set [1] was found to be 100%.

In data set [1], “M1-linked-tri-ubiquitin (from UniProt P0CG47 1-76; P0CG47 1-76; P0CG47 1-76) (natural protein)” returned a percent binding of 100%.

For “M1-linked-tetra-ubiquitin (from UniProt P0CG47 1-76; P0CG47 1-76; P0CG47 1-76; P0CG47 1-76) (natural protein)”, in data set [1], the percent binding was 100%.

B1: 1TEL-GSGG-UBA (other, human)
chain: IRLPAHLRLQPIYWSRDDVAQWLKWAENEFSLSPIDSNTFEMNGKALLLLTKEDFRYRSPHSGDELYELLQHILGSGGELQRKIMEVELSVHGVTHQEAQTALGATGGDVVSAIRNLKVDQLFHLSSRSRADAWRILEHYQWDLSAASRYVLARP
With B1, the binding result in the data set “crystal structure” is recorded as “binds”.

B2: 1TEL-GG-UBA (other, human)
chain: IRLPAHLRLQPIYWSRDDVAQWLKWAENEFSLSPIDSNTFEMNGKALLLLTKEDFRYRSPHSGDELYELLQHILGGELQRKIMEVELSVHGVTHQEAQTALGATGGDVVSAIRNLKVDQLFHLSSRSRADAWRILEHYQWDLSAASRYVLARP
As to B2, in “crystal structure”, the binding result is reported as “binds”.

Source of the values: PMC10843481 (Structure (London, England : 1993), 2023).
